The results in this text go back to the supplement of paper PMC9112550, “Optimization of the antimicrobial peptide Bac7 by deep mutational scanning” (BMC Biology, 2022).

In the data set the test system is Escherichia coli TOP10. As to the kind of experiment: shrunken log2 fold change of peptide-encoding DNA abundance (4.5 h post-induction vs induction); higher = less antimicrobial activity (less host growth inhibition). Conditions: time post-induction: 4.5 h; library: site-saturation at positions 5, 18, 19, 20.
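Further: peptides expressed intracellularly from a pBAD plasmid library in pooled LB shake-flask culture, induced with 0.3% L-arabinose, DNA abundance read by NGS, three biological replicates, DESeq2 with apeglm shrinkage.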

Turning to RRIRGRPPRLPRPRPRPYNHPRP, the “shrunken log2 fold change” value is -0.983.

For the sequence RRIRARPPRLPRPRPRPRNLPRP, the “shrunken log2 fold change” value is -0.0356.

In the case of RRIRDRPPRLPRPRPRPSMHPRP, the “shrunken log2 fold change” value was -0.176.

For the sequence RRIRTRPPRLPRPRPRPCMTPRP, the “shrunken log2 fold change” value was -0.111.

For the sequence RRIRLRPPRLPRPRPRPPKEPRP, the “shrunken log2 fold change” value was determined as 0.00696.

In the case of RRIRYRPPRLPRPRPRPGDLPRP, the “shrunken log2 fold change” value was 0.0641.

On to RRIRRRPPRLPRPRPRPFMDPRP, for which the “shrunken log2 fold change” value is -0.148.

As to RRIRPRPPRLPRPRPRPPWHPRP, the “shrunken log2 fold change” value stood at 0.196.

As to RRIRWRPPRLPRPRPRPYFIPRP, the “shrunken log2 fold change” value was -0.647.

Regarding RRIRRRPPRLPRPRPRPNTVPRP, the “shrunken log2 fold change” value is -0.107.

Take RRIRGRPPRLPRPRPRPSPAPRP: the “shrunken log2 fold change” value came out at 0.901.

Consider RRIRKRPPRLPRPRPRPFSLPRP, for which the “shrunken log2 fold change” value is -0.189.

For RRIRDRPPRLPRPRPRPFHNPRP, the “shrunken log2 fold change” value is -0.271.

RRIRKRPPRLPRPRPRPRAWPRP: the “shrunken log2 fold change” value amounted to 0.389.

For the sequence RRIRKRPPRLPRPRPRPVYKPRP, the “shrunken log2 fold change” value came out at 0.0665.

In the case of RRIRHRPPRLPRPRPRPIWWPRP, the “shrunken log2 fold change” value came to 0.0995.

In the case of RRIRHRPPRLPRPRPRPPNCPRP, the “shrunken log2 fold change” value was -0.19.

As for RRIRFRPPRLPRPRPRPQNGPRP, the “shrunken log2 fold change” value was -0.0443.

RRIRMRPPRLPRPRPRPGNRPRP: the “shrunken log2 fold change” value came to 0.0934.

As for RRIRLRPPRLPRPRPRPTTDPRP, the “shrunken log2 fold change” value is -0.287.

Take RRIRMRPPRLPRPRPRPAFGPRP: the “shrunken log2 fold change” value is 1.05.

Take RRIRWRPPRLPRPRPRPRCEPRP: the “shrunken log2 fold change” value is 0.545.

Consider RRIRHRPPRLPRPRPRPVGWPRP, for which the “shrunken log2 fold change” value was 0.535.

For RRIRTRPPRLPRPRPRPSHRPRP, the “shrunken log2 fold change” value was -0.463.

For RRIRCRPPRLPRPRPRPYTWPRP, the “shrunken log2 fold change” value was -1.09.

On to RRIRFRPPRLPRPRPRPCSQPRP, for which the “shrunken log2 fold change” value came out at 0.0319.

Consider RRIRERPPRLPRPRPRPVSCPRP, for which the “shrunken log2 fold change” value came out at 0.182.

As to RRIRGRPPRLPRPRPRPTLSPRP, the “shrunken log2 fold change” value is 0.313.

Consider RRIRARPPRLPRPRPRPANYPRP, for which the “shrunken log2 fold change” value was -0.122.

In the case of RRIRCRPPRLPRPRPRPSTDPRP, the “shrunken log2 fold change” value is -0.348.

With RRIRRRPPRLPRPRPRPNMEPRP, the “shrunken log2 fold change” value was found to be 0.0673.

As to RRIRCRPPRLPRPRPRPSMCPRP, the “shrunken log2 fold change” value is -0.14.

RRIRGRPPRLPRPRPRPRPIPRP: the “shrunken log2 fold change” value came to 0.635.

On to RRIRRRPPRLPRPRPRPCKSPRP, for which the “shrunken log2 fold change” value came out at 0.263.

With RRIRHRPPRLPRPRPRPTSRPRP, the “shrunken log2 fold change” value stood at 0.0698.

In the case of RRIRGRPPRLPRPRPRPSSRPRP, the “shrunken log2 fold change” value is 0.372.

On to RRIRLRPPRLPRPRPRPAHTPRP, for which the “shrunken log2 fold change” value is 0.0258.

As for RRIRGRPPRLPRPRPRPKICPRP, the “shrunken log2 fold change” value was -0.0723.

For RRIRMRPPRLPRPRPRPMSWPRP, the “shrunken log2 fold change” value worked out at 0.132.

With RRIRIRPPRLPRPRPRPVLTPRP, the “shrunken log2 fold change” value is -0.0413.

Consider RRIRDRPPRLPRPRPRPNFMPRP, for which the “shrunken log2 fold change” value was -0.316.

In the case of RRIRGRPPRLPRPRPRPFQRPRP, the “shrunken log2 fold change” value is -0.0485.

RRIRGRPPRLPRPRPRPIIKPRP: the “shrunken log2 fold change” value was 0.237.

On to RRIRVRPPRLPRPRPRPSFHPRP, for which the “shrunken log2 fold change” value was -0.439.

On to RRIRHRPPRLPRPRPRPKFIPRP, for which the “shrunken log2 fold change” value was -0.192.

As to RRIRIRPPRLPRPRPRPNLNPRP, the “shrunken log2 fold change” value was -0.237.

For the sequence RRIRYRPPRLPRPRPRPQYPPRP, the “shrunken log2 fold change” value is -0.733.

On to RRIRFRPPRLPRPRPRPLIPPRP, for which the “shrunken log2 fold change” value was -0.651.

Turning to RRIRVRPPRLPRPRPRPEYQPRP, the “shrunken log2 fold change” value is -0.235.

Consider RRIRRRPPRLPRPRPRPTPSPRP, for which the “shrunken log2 fold change” value is 0.772.

As to RRIRRRPPRLPRPRPRPFCCPRP, the “shrunken log2 fold change” value stood at 0.343.

Consider RRIRVRPPRLPRPRPRPWCWPRP, for which the “shrunken log2 fold change” value was -0.0537.

Take RRIRIRPPRLPRPRPRPITSPRP: the “shrunken log2 fold change” value is -1.46.

As to RRIRSRPPRLPRPRPRPEPNPRP, the “shrunken log2 fold change” value amounted to 0.374.

As for RRIRSRPPRLPRPRPRPDPWPRP, the “shrunken log2 fold change” value worked out at 0.0152.

As to RRIRIRPPRLPRPRPRPPTKPRP, the “shrunken log2 fold change” value is 0.126.

For the sequence RRIRWRPPRLPRPRPRPFMYPRP, the “shrunken log2 fold change” value is -0.0072.

Regarding RRIRCRPPRLPRPRPRPGDAPRP, the “shrunken log2 fold change” value amounted to 0.466.

Take RRIRYRPPRLPRPRPRPMHWPRP: the “shrunken log2 fold change” value was -0.597.

Take RRIRWRPPRLPRPRPRPEDMPRP: the “shrunken log2 fold change” value came to 0.282.

With RRIRPRPPRLPRPRPRPEWMPRP, the “shrunken log2 fold change” value was 0.0362.

As for RRIRRRPPRLPRPRPRPWCYPRP, the “shrunken log2 fold change” value is -0.439.

On to RRIRTRPPRLPRPRPRPGDFPRP, for which the “shrunken log2 fold change” value was -0.093.

For the sequence RRIRFRPPRLPRPRPRPFIGPRP, the “shrunken log2 fold change” value was -0.362.

As for RRIRMRPPRLPRPRPRPSMFPRP, the “shrunken log2 fold change” value is -0.368.

As for RRIRWRPPRLPRPRPRPTKFPRP, the “shrunken log2 fold change” value was determined as 0.142.

With RRIRERPPRLPRPRPRPTEHPRP, the “shrunken log2 fold change” value was -0.144.

For the sequence RRIRVRPPRLPRPRPRPESSPRP, the “shrunken log2 fold change” value turned out to be 0.00518.

Take RRIRDRPPRLPRPRPRPLLNPRP: the “shrunken log2 fold change” value came to 0.124.

Take RRIRIRPPRLPRPRPRPSYFPRP: the “shrunken log2 fold change” value is -0.83.

In the case of RRIRKRPPRLPRPRPRPSEMPRP, the “shrunken log2 fold change” value is -0.17.

For the sequence RRIRVRPPRLPRPRPRPMNQPRP, the “shrunken log2 fold change” value was -0.0672.

With RRIRIRPPRLPRPRPRPSNVPRP, the “shrunken log2 fold change” value is -0.683.

As for RRIRGRPPRLPRPRPRPNKSPRP, the “shrunken log2 fold change” value came to 0.96.

RRIRCRPPRLPRPRPRPWMMPRP: the “shrunken log2 fold change” value was -0.0394.

With RRIRPRPPRLPRPRPRPLSQPRP, the “shrunken log2 fold change” value was -0.185.

In the case of RRIRRRPPRLPRPRPRPRTQPRP, the “shrunken log2 fold change” value came out at 0.19.

For RRIRARPPRLPRPRPRPPSEPRP, the “shrunken log2 fold change” value was 1.17.

In the case of RRIRCRPPRLPRPRPRPEMRPRP, the “shrunken log2 fold change” value stood at 0.835.

Turning to RRIRNRPPRLPRPRPRPLNLPRP, the “shrunken log2 fold change” value is -0.25.

As for RRIRLRPPRLPRPRPRPDSHPRP, the “shrunken log2 fold change” value is -0.46.

With RRIRWRPPRLPRPRPRPEYRPRP, the “shrunken log2 fold change” value amounted to 0.0624.

For RRIRMRPPRLPRPRPRPNDHPRP, the “shrunken log2 fold change” value was -0.0869.

Consider RRIRARPPRLPRPRPRPGTIPRP, for which the “shrunken log2 fold change” value was -0.0682.

On to RRIRKRPPRLPRPRPRPNLIPRP, for which the “shrunken log2 fold change” value was -0.494.

Regarding RRIRFRPPRLPRPRPRPMWGPRP, the “shrunken log2 fold change” value is -0.136.

RRIRMRPPRLPRPRPRPETSPRP: the “shrunken log2 fold change” value is 0.163.

As for RRIRPRPPRLPRPRPRPNDGPRP, the “shrunken log2 fold change” value is -0.482.

RRIRERPPRLPRPRPRPSAQPRP: the “shrunken log2 fold change” value was -0.167.

For the sequence RRIRLRPPRLPRPRPRPQIHPRP, the “shrunken log2 fold change” value was -0.154.

Consider RRIRVRPPRLPRPRPRPGAPPRP, for which the “shrunken log2 fold change” value stood at 0.603.

With RRIRKRPPRLPRPRPRPLNCPRP, the “shrunken log2 fold change” value is -0.0221.

Regarding RRIRVRPPRLPRPRPRPKNYPRP, the “shrunken log2 fold change” value is -0.359.

For the sequence RRIRERPPRLPRPRPRPRHFPRP, the “shrunken log2 fold change” value is -0.419.

As for RRIRLRPPRLPRPRPRPVHDPRP, the “shrunken log2 fold change” value is -0.458.

On to RRIRHRPPRLPRPRPRPHLQPRP, for which the “shrunken log2 fold change” value is -0.129.

For the sequence RRIRQRPPRLPRPRPRPAEVPRP, the “shrunken log2 fold change” value came to 0.142.

Regarding RRIRVRPPRLPRPRPRPGNIPRP, the “shrunken log2 fold change” value was -0.116.

Take RRIRHRPPRLPRPRPRPFNMPRP: the “shrunken log2 fold change” value was -0.0933.

For the sequence RRIRWRPPRLPRPRPRPWGAPRP, the “shrunken log2 fold change” value amounted to 0.297.

Take RRIRMRPPRLPRPRPRPGFKPRP: the “shrunken log2 fold change” value worked out at 0.46.

RRIRSRPPRLPRPRPRPFREPRP: the “shrunken log2 fold change” value worked out at 0.0536.

With RRIRRRPPRLPRPRPRPDEYPRP, the “shrunken log2 fold change” value was -0.0588.

On to RRIRWRPPRLPRPRPRPPHGPRP, for which the “shrunken log2 fold change” value is 0.428.

Take RRIRCRPPRLPRPRPRPFEIPRP: the “shrunken log2 fold change” value was -0.341.

RRIRWRPPRLPRPRPRPSNSPRP: the “shrunken log2 fold change” value was -0.498.

RRIRYRPPRLPRPRPRPWYRPRP: the “shrunken log2 fold change” value is 0.729.

Consider RRIRSRPPRLPRPRPRPLSQPRP, for which the “shrunken log2 fold change” value was -0.00748.

In the case of RRIRMRPPRLPRPRPRPHHKPRP, the “shrunken log2 fold change” value is -0.316.

With RRIRVRPPRLPRPRPRPIPWPRP, the “shrunken log2 fold change” value is -0.232.

On to RRIRQRPPRLPRPRPRPEDHPRP, for which the “shrunken log2 fold change” value is -0.0311.

Turning to RRIRFRPPRLPRPRPRPLHTPRP, the “shrunken log2 fold change” value was -0.262.

As to RRIRMRPPRLPRPRPRPGKQPRP, the “shrunken log2 fold change” value is -0.00189.

For the sequence RRIRARPPRLPRPRPRPYHYPRP, the “shrunken log2 fold change” value was -0.0868.

On to RRIRIRPPRLPRPRPRPEGTPRP, for which the “shrunken log2 fold change” value was found to be 0.0536.

On to RRIRTRPPRLPRPRPRPCIDPRP, for which the “shrunken log2 fold change” value was -0.519.

Turning to RRIRTRPPRLPRPRPRPEYCPRP, the “shrunken log2 fold change” value was -0.189.

Consider RRIRHRPPRLPRPRPRPEWKPRP, for which the “shrunken log2 fold change” value was -0.00613.

As for RRIRNRPPRLPRPRPRPYCNPRP, the “shrunken log2 fold change” value is -0.672.

As to RRIRERPPRLPRPRPRPTIDPRP, the “shrunken log2 fold change” value was -0.227.

On to RRIRTRPPRLPRPRPRPTGPPRP, for which the “shrunken log2 fold change” value amounted to 0.48.

On to RRIRDRPPRLPRPRPRPRTFPRP, for which the “shrunken log2 fold change” value is -0.0632.

For the sequence RRIRHRPPRLPRPRPRPHDPPRP, the “shrunken log2 fold change” value was -0.613.

For RRIRIRPPRLPRPRPRPHHLPRP, the “shrunken log2 fold change” value is -0.221.

RRIRTRPPRLPRPRPRPFWQPRP: the “shrunken log2 fold change” value worked out at 0.0872.
